{"source": "the nanobody polyreactivity screen of Harvey et al. (2022)"}
{"assay": "yeast display, Sf9 membrane polyspecificity reagent, FACS + sequencing; frameworks hold sequencing errors", "outline": "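Polyreactivity labels are assigned by the sorting gate from which each nanobody was recovered. The gates were low and high (top ~1%), set on anti-HA fluorescence for expression and streptavidin fluorescence for reagent binding. Before sorting, galactose-induced (36–48 hours) yeast display cells were stained for 1 hour at 4 °C with 10% biotinylated, detergent-solubilized Sf9 membrane reagent.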"}
{"sequence": "QVQLVESGGGLVQAGGSLRLSCAASGYTFVYNAMGWYRQAPGKEREFVAAITWSGTSTRYADSVKGRFTISRDNAKYTVYLQMKSLKPEDTAVYYCAARRRSAQSGSYNHWGQGTQVTVSS", "polyreactivity (PSR sort gate)": "high polyreactivity"}
{"sequence": "QVQLVESGGGLVQAGGSLRLSCAASGYTFWYNAMGWYIPAPGKERELVAAIRSSGARTYYADSVKGRFTISRDNAKNTVYLQMNSLKPEDTAVYYCAASLRSGGRSHYYWGQGTQVTVSS", "polyreactivity (PSR sort gate)": "high polyreactivity"}
{"sequence": "QVQLVESGGGLVQAGGSLRLSCAASGYTFYANAMGWYRQATGKEREFVASITWSGGSTYYADSVKGRFTISRDNAKNTVYLQMNSLKPEDTAVYYCAAESWFKYDYWGQGTQVTVSS", "polyreactivity (PSR sort gate)": "low polyreactivity"}
{"sequence": "QVQLVESGGGLVQAGGSLRLSCAASGYTFYFYAMGWSRQAPGKERELVAAITGGGTTSYADSVKGRFTISRDNAKNTVYLQMNSLKPEDTAVYYCNVLFADKSDYWGQGSQVTVSS", "polyreactivity (PSR sort gate)": "low polyreactivity"}
{"sequence": "QVQLVESGGGLVQAGGSLRLSCAASGYTFYGYAMGWYRQAPGKERELVATISTGGTTTYADSVKGRFTISRDNAKNTVYLQMNSLKPEDTAVYYCAADANQVRDVHEFYPYLHDYWGQGTQVTVSS", "polyreactivity (PSR sort gate)": "low polyreactivity"}
{"sequence": "QVQLVESGGGLVQAGGSLRLSCAASGYTFYPYARGWYRQAPGKGRELVAVITSGDSTYYADSVKGRFTISRDNAKNTVYLQMNSLKPEDSAVYYCNTLGFDYYYYEYDYWVQGTQVTVSS", "polyreactivity (PSR sort gate)": "low polyreactivity"}
{"sequence": "QVQLVESGGGLVQAGGSLRLSCAASGYTFYVYAMGCYRQAPGKERELVASITSSTSTKYADSVKGRFTISRDNANNTVYLQMNSLKPEDTAVYYCAADSRVPEYRSPKNDYWGQGTQVTVSS", "polyreactivity (PSR sort gate)": "low polyreactivity"}
{"sequence": "QVQLVESGGGLVQAGGSLRLSCAASGYTFYVYTMGWYRPARGKERELVAAISGSGTSTYYADSVKRRFTISRDNAKNTVYLQMNSLKPEDTAVYYCNAQDSLTTVPDPEYDYWGQGTQVTVSS", "polyreactivity (PSR sort gate)": "low polyreactivity"}
{"sequence": "QVQLVESGGGLVQAGGSLRLSCAASGYTFYVYTMGWYRQAPGKERELVAAISGSGTSTYYADSVKGRFTISRDNAKNTVYLQMNSLKPEDTAVYYCAAEDYSRDVYSYDYWGQGTQVTVSS", "polyreactivity (PSR sort gate)": "low polyreactivity"}
{"sequence": "QVQLVESGGGLVQAGGSLRLSCAASGYTGVYALGWYRQAPGKERELVADITSGGNTDYADSVKGRFTISRDNAKNTVYLQMNSLKPEDTAVYYCATPYRRLNTWIYDYWGQGTQVTVSS", "polyreactivity (PSR sort gate)": "high polyreactivity"}
{"sequence": "QVQLVESGGGLVQAGGSLRLSCAASGYTIFFNVMGGYRQAPGKERELVAAISYSGGSTNYADSVKGRFTISRDNAKNTVYLQMNSLKPEDTAVYYCNTVRSPPGHVYWGEGTQVTVSS", "polyreactivity (PSR sort gate)": "low polyreactivity"}
{"sequence": "QVQLVESGGGLVQAGGSLRLSCAASGYTLADYAMGWYRQAPGKERELVAAISSGGITSYADSVKGRFTISRDNAKNTVYLQMNSLKPEDTAVYYCNAAIVGFTRAYQYDYWGQGTQVTVSS", "polyreactivity (PSR sort gate)": "high polyreactivity"}
{"sequence": "QVQLVESGGGLVQAGGSLRLSCAASGYTLDNYAMGWYRQAPGKERELVAGITFSGGSTFYADSVKGRFTISRDNAKNTVYLQMNSLKPEDTAVYYCAADAEFQADHKYGYWGQGTQVTVSS", "polyreactivity (PSR sort gate)": "low polyreactivity"}
{"sequence": "QVQLVESGGGLVQAGGSLRLSCAASGYTLFRNAMGWYRQAPGKERELVAAISRSGARTYYADSVKGRFTISRDNAKTTVYLQMNSLKPDYTAVYYCAAVIKWTKDDYWGQGTQVTVSS", "polyreactivity (PSR sort gate)": "high polyreactivity"}
{"sequence": "QVQLVESGGGLVQAGGSLRLSCAASGYTLKYYAMGWYRQAPGKERELVAVISRGGSTYYADSVKGRFTISRDNAKNTVDLQMNSLKPEDTAVYYCAKRPTQGYYPYGYWGQGTQVTVSS", "polyreactivity (PSR sort gate)": "high polyreactivity"}
{"sequence": "QVQLVESGGGLVQAGGSLRLSCAASGYTLQTYAMGWYRQAPGKERELVAAISYRGGRTYYADSVKGRFTISRDNAKNTVYLQMNSLKPEDTAVYYCATRVRYKDYPYSIRYYWGQGTQVTVSS", "polyreactivity (PSR sort gate)": "high polyreactivity"}
{"sequence": "QVQLVESGGGLVQAGGSLRLSCAASGYTLRIYAMGWYRQAPGKERELVAAISRGGGTTRYADSVKGRFTISRDNAKNTVYLQMNSLKPEDTAVYYCNKDVYGYSRTGPRGYDYWGQGTQVTVSS", "polyreactivity (PSR sort gate)": "high polyreactivity"}
{"sequence": "QVQLVESGGGLVQAGGSLRLSCAASGYTLSLNAMGWYRQAPGKERELVAVISWNGGRTRYADSVKGRFTISRDNAKNTVYLQMNSLKPEDTAVYYCNADIYARTYAGYYQWRPYDYWGQGTQVTVSS", "polyreactivity (PSR sort gate)": "high polyreactivity"}
{"sequence": "QVQLVESGGGLVQAGGSLRLSCAASGYTLYLNAMGWYSQAPGKERELVARISGGGSTNYADYVKGRFTMSRDNAKNTVYLQMNSLKPEDTAVYYCAATIFAYGYRSFKLDYWGQGTQVTVSS", "polyreactivity (PSR sort gate)": "low polyreactivity"}
{"sequence": "QVQLVESGGGLVQAGGSLRLSCAASGYTRFYAMGWYRQAPGKERELVAAISSSGGTTYYADSVKGRFTISRDNAKNTVYLQMNSLKPEDTAVYYCAKYVSYSRTLYDYWGQGTQVTVSS", "polyreactivity (PSR sort gate)": "high polyreactivity"}
{"sequence": "QVQLVESGGGLVQAGGSLRLSCAASGYTSRSNAMGWYRQAPGKERELVAAIRGGGNTKYADSVKGRFTISRDTAKNTVYLQMNSLKPEDTAVYYCAVVTGSFRTRYTYYYWGLGTQVTVSS", "polyreactivity (PSR sort gate)": "high polyreactivity"}
{"sequence": "QVQLVESGGGLVQAGGSLRLSCAASGYTSRTNAMGWYIQAPGKERELVAAITWRGTRTYYADSVKGRFTISRDNAKNTVYLQMNSLKPEDTAVYYCATQWIRKYDYWGQGTQVTVSS", "polyreactivity (PSR sort gate)": "high polyreactivity"}
{"sequence": "QVQLVESGGGLVQAGGSLRLSCAASGYTSYVYAMGWYRQAPGKERELVAAISLRTASTYYADSVKGRFTISRDTAQKTVYVQMNSLKPEDTAVYYCARGRETYRYSYRLNYWGQGTQVTVSS", "polyreactivity (PSR sort gate)": "high polyreactivity"}
{"sequence": "QVQLVESGGGLVQAGGSLRLSCAASGYTVAFYDMGWYRQAPRKERELVAAISASGGSTYYADSVKGRFTISRDNAKNTVYLQMNSLKPEDTAVYYCAARSKYRGDMDYWGQGTQVTVSS", "polyreactivity (PSR sort gate)": "high polyreactivity"}
{"sequence": "QVQLVESGGGLVQAGGSLRLSCAASGYTYEYYAMGWYRQAPGKERELVAAISWSGGDTYYADSVKGRFTISRDNAKNTVYIQMNSLKPEDTAVYYCNAVLYTYYYYANWYGAYDYWGQGTQVTVCS", "polyreactivity (PSR sort gate)": "low polyreactivity"}
{"sequence": "QVQLVESGGGLVQAGGSLRLSCAASGYTYGYNAMGSYRQAPGKERELVAAITKNGGSTYYADSVKGRFTISRDNAKNTVYLQMNSLKPEDTAVYYCAARIYYSRTFGYYYWGQGTQVTVSS", "polyreactivity (PSR sort gate)": "high polyreactivity"}
{"sequence": "QVQLVESGGGLVQAGGSLRLSCAASISSINAMGWYRQAPGKERELVAAIRWSGSSTYYADSVKGRFTISRDNAKNTVYLQMNSLKPEDTAVYYCAARYVRVGYDYWGQGTQVTVSS", "polyreactivity (PSR sort gate)": "high polyreactivity"}
{"sequence": "QVQLVESGGGLVQAGGSLRLSCAASRIIFDDNAMGWYRQAPGKEMELVAAISRRGGSTYYADSVKGRFTISRDNAKNTVYLQMNSLKPEDTAVYYCAATTRTSSLYNYWGQGTQVTVSS", "polyreactivity (PSR sort gate)": "high polyreactivity"}
{"sequence": "QVQLVESGGGLVQAGGSLRLSCAASRIIFYGNAMGWYRQAHGKERELVAAIDQSGDSTYYADSVKGRFTISRDNAKNTVYLQMNSLKPEDTAVYYCAADSLYLAYEYWGQGTQVTVSS", "polyreactivity (PSR sort gate)": "high polyreactivity"}
{"sequence": "QVQLVESGGGLVQAGGSLRLSCAASRITSYPYAMGWSRQGPGKERELVAAISKRGGGTYYADSVKGPFTISRDNAMNTVYLQLNSLKPVDTAVYYCAKSWGPTTYKIVPAYGYWGQGTQVTVSS", "polyreactivity (PSR sort gate)": "high polyreactivity"}
{"sequence": "QVQLVESGGGLVQAGGSLRLSCAASRRIIGAYAMGWDRQAPGKEWELVARISWSGGTTYYADSVKGRFPISRDNAKNTVYLQMNSLKPEDTAVYYCAARYSYYVTGGISKYDYWGQGTQVTVSS", "polyreactivity (PSR sort gate)": "low polyreactivity"}
{"sequence": "QVQLVESGGGLVQAGGSLRLSCAASRRIYYWYVMGWYRQAPGKERELVASISWSGGSTYYADSVKGRFTISRDNAKNTVYLQMNSLKPEDTAVYYCNAGSVYTVSLPGHPYDYWGQGTQVTVSS", "polyreactivity (PSR sort gate)": "low polyreactivity"}
{"sequence": "QVQLVESGGGLVQAGGSLRLSCAASRRTFWNYAMGWYRQAPGKESEFVAVIRFSDGSTYYADSVKGRFTISRDNAKTTVYLQMHSLKPEDTPVYYCAAKGPRRWGSGFDYWGQRTQVTVSS", "polyreactivity (PSR sort gate)": "low polyreactivity"}
{"sequence": "QVQLVESGGGLVQAGGSLRLSCAASRSIFPLYAMGWYRQAPGKERELVAAITYSGGRTYYADSVKGRFTISRDNAKNTVYLQMISLKPEDTAVYYCNTRQRVIDDYWGQGTQVTVSS", "polyreactivity (PSR sort gate)": "high polyreactivity"}
{"sequence": "QVQLVESGGGLVQAGGSLRLSCAASRSIFSQYSRGCYRQAPGKERELVATITWRGGSNTNYADSVKGRFTISRDNAKNTVYLQMNSLKPEDTAVYYCNAAFPYHYRFDYWGQGTQVTVSS", "polyreactivity (PSR sort gate)": "low polyreactivity"}
{"sequence": "QVQLVESGGGLVQAGGSLRLSCAASRSTFEIYAMGWYRPAPGKERELFAAISSGGSTNYADSVKGRFTISRDNAKNTVYLQMKSLITEDTAVYYCVYAIQFYYWGQGTQVTVSS", "polyreactivity (PSR sort gate)": "low polyreactivity"}
{"sequence": "QVQLVESGGGLVQAGGSLRLSCAASRSTFVLYDMGWYRPAPGKERELVAAISRSGDSTYYADSVKGRYTISRDNAKNTVYLQMNSLKPEDTAVYYCAAKRRISTGMDYWGQGTQGTVSS", "polyreactivity (PSR sort gate)": "high polyreactivity"}
{"sequence": "QVQLVESGGGLVQAGGSLRLSCAASRSTIPSYAMGWSRQAPGKERELVASITYSDGTTRYADSVKGRFTISRDNAKNTVYLQMNSLKPEDTAVYYCNAVYYRDGMDYWGQGTQVTVSS", "polyreactivity (PSR sort gate)": "low polyreactivity"}
{"sequence": "QVQLVESGGGLVQAGGSLRLSCAASVFTFLYYAMGWYRQAPGKERELVAAISSTGGTTYYADSVKGRFTISRDNAKNTVYLQMNSLKPEDTAVYYCAADQGVYRTYWFDYWGQGTQVTVSS", "polyreactivity (PSR sort gate)": "high polyreactivity"}
{"sequence": "QVQLVESGGGLVQAGGSLRLSCAASVFTFTVNTMGWYRQAPGKERELVAANSNTGSTKYADSVKGRFTISRDKAKNTLYLQMNSLKPEDTAVFYCAAEPGYYSRPDYRVYRVYYWGQGTQVTVSS", "polyreactivity (PSR sort gate)": "high polyreactivity"}
{"sequence": "QVQLVESGGGLVQAGGSLRLSCAASVFTFYLYAMGWDRQAPGKERELVADITKRGGSTDYADSVKGRFTISRDNAKNTVYLQMNSLKPEDTAVYYCAARGPTFGVDYGYWGQGTQVTVSS", "polyreactivity (PSR sort gate)": "high polyreactivity"}
{"sequence": "QVQLVESGGGLVQAGGSLRLSCAASVIIFQVYAMGWYRQAAGKERELVAAITRRGASTYYADSVKGRFTISRDNPKNTDYLQMNSLKPEETAVYYFNARAYYRLYKSKLGYWGQGTQVTVSS", "polyreactivity (PSR sort gate)": "high polyreactivity"}
{"sequence": "QVQLVESGGGLVQAGGSLRLSCAASVIIFRQYAMGWSRQAPGKERELVAAISGSGGTTYYADSVKGRFTISRDNAKNTVYLQMNSLKPEDTAVYYCAADSSSRGRLDYWGQGTQVTVSS", "polyreactivity (PSR sort gate)": "high polyreactivity"}
